# From patent US20230090114A1, “METHODS FOR PROMOTING WEIGHT LOSS” (89BIO LTD., priority 2020, published 2023)
# How the values were obtained:
# [1] = Diet-induced NASH model in mice; type: in vivo; conditions: 0.3 mg/kg, 3 times/week
# [2] = Indirect calorimetry: VO2, VCO2, EE, RER (METABOpack sessions); type: in vivo, CD-1 mice
# Description: The Physiocage System allows recording the O2 consumption (VO2) and the CO2 production (VCO2) by indirect calorimetry. For each animal, both VO2 and VCO2 were recorded for 3 min every 30 minutes and the mean values were calculated by the system.
# Energy Expenditure (EE) and Respiratory Exchange Ratio (RER) were calculated with formulas that are based on VO2 and VCO2 values: […]
# Analysis of these parameters was performed as follows: for each mouse, the mean values were calculated from the corresponding recordings for each nycthemeral phase (Diurnal Phase or DP, Nocturnal Phase or NP and Whole day or WD). The means per nycthemeral phase were then calculated for each group for statistical comparisons.
# [3] = Water intake (METABOpack sessions); type: in vivo, CD-1 mice;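 on cumulative water intake: water intake recorded in mL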
# Description: During the METABOpack™ sessions, animals were housed singly in the Physiocage System (Panlab/Harvard apparatus), which was composed of: • 8 physiocages (LE1301) • 8 Air tight lids for mouse (LE1303) • 8 grid floors for mouse (LE1317) • 8 Feeding bottles for mouse (LE1306) • 2 Air supply and switching units for up to 4 home cages each (LE4004FL) • 1 O2/CO2 analyzer (LE405) • 1 acquisition software suite, METABOLISM (V3.0).
# In the present project, a METABOpack™ session was consisted of a 12-hour period of acclimation followed by a 48-hour period of recording of the respiratory exchanges, FI, water intake (WI) and locomotor activity of each animal.
# Following this acclimation period, the parameters cited above were automatically and simultaneously recorded for 48 hours, except for body weight that was measured manually every day.
# The METABOpack™ sessions were conducted at the start (T1-2), the middle (T14-15) and the end (T26-27) of the treatment period.
# [4] = T1, NP and WD, whatever the dose, vs Liraglutide
# [5] = T1, whatever the dose, vs vehicle
# [6] = T2, DP and WD, whatever the dose, vs Liraglutide
# [7] = T2, between the three 89BIO-100 groups
# [8] = T2, whatever the dose, vs vehicle
# [9] = T14, DP, 3 mg/kg, vs Liraglutide
# [10] = T14, NP and WD, whatever the dose, vs Liraglutide
# [11] = T14, NP and WD, whatever the dose, vs vehicle
# [12] = T14, between the three 89BIO-100 groups
# [13] = T15, NP and WD, 1 and 3 mg/kg, vs vehicle
# [14] = T15, between the three 89BIO-100 groups
# [15] = T15, whatever the phase, 1 and 3 mg/kg, vs Liraglutide
# [16] = T27, NP, whatever the dose, vs vehicle
# [17] = T27, WD, 0.3 and 1 mg/kg, vs Liraglutide
# [18] = T27, WD, 0.3 and 1 mg/kg, vs vehicle
# [19] = T27, between the three 89BIO-100 groups
molecule,measurement,setting,value
Mutant FGF21-GalNAc-SA-PEG-20 kDa (conjugate) MHPIPDSSPLLQFGGQVRQRYLYTDDAQQTEAHLEIREDGTVGGAADQSPESLLQLKALKPGVIQILGVKTSRFLCQRPDGALYGSLHFDPEACSFRELLLEDGYNVYQSEAHGLPLHLPGNKSPHRDPAPRGPARFLPLPGLPPALPEPPGILAPQPPDVGSSDPLSMVGPTQGASPSYAS,efficacy in Diet-induced NASH model,[1],effective
same,RER,[2]; [4],increase in RER
same,VCO2,"[2]; T1, NP, whatever the dose, vs Liraglutide",increase in VCO2
same,RER,"[2]; T1, between 89BIO-100 groups",no significant difference
same,VCO2,"[2]; T1, between all 89BIO-100 groups",no significant difference
same,RER,[2]; [5],No significant difference
same,VCO2,[2]; [5],No significant difference
same,EE,[2]; [6],increase in EE
same,VO2,[2]; [6],increase in VO2
same,EE,"[2]; T2, between 89BIO-100 groups",no significant difference
same,VO2,[2]; [7],no significant difference
same,EE,[2]; [8],No significant difference
same,VO2,[2]; [8],No significant difference
same,EE,[2]; [9],increased
same,VO2,[2]; [9],increased
same,EE,"[2]; T14, DP, 3 mg/kg, vs vehicle",increased
same,VO2,"[2]; T14, DP, 3 mg/kg, vs vehicle",increased
same,EE,[2]; [10],increase in EE
same,RER,[2]; [10],decrease in RER
same,VO2,[2]; [10],increase in VO2
same,EE,[2]; [11],increased
same,VO2,[2]; [11],increased
same,VCO2,"[2]; T14, NP, whatever the dose, vs Liraglutide",increase in VCO2
same,VCO2,"[2]; T14, NP, whatever the dose, vs vehicle",increased
same,VCO2,"[2]; T14, WD, 1 and 3 mg/kg, vs Liraglutide",increased
same,VCO2,"[2]; T14, WD, 1 and 3 mg/kg, vs vehicle",increased
same,EE,[2]; [12],no significant difference
same,VCO2,[2]; [12],no significant difference
same,VO2,[2]; [12],no significant difference
same,RER,"[2]; T14, whatever the dose, vs vehicle",No significant difference
same,EE,"[2]; T15, DP, 1 mg/kg, vs vehicle",increased
same,VCO2,"[2]; T15, DP, 1 mg/kg, vs vehicle",increased
same,VO2,"[2]; T15, DP, 1 mg/kg, vs vehicle",increased
same,EE,[2]; [13],increased
same,VCO2,[2]; [13],increased
same,VO2,[2]; [13],increased
same,EE,[2]; [14],no significant difference
same,VCO2,[2]; [14],no significant difference
same,VO2,[2]; [14],no significant difference
same,EE,[2]; [15],increase in EE
same,VCO2,[2]; [15],increase in VCO2
same,VO2,[2]; [15],increase in VO2
same,VCO2,"[2]; T27, NP and WD, 0.3 and 1 mg/kg, vs vehicle",increased
same,VCO2,"[2]; T27, NP and WD, dose of 1, vs Liraglutide",increase in VCO2
same,VO2,"[2]; T27, NP, 1 and 3 mg/kg, vs Liraglutide",increase in VO2
same,EE,"[2]; T27, NP, dose of 1, vs Liraglutide",increase in EE
same,EE,[2]; [16],increased
same,VO2,[2]; [16],increased
same,EE,[2]; [17],increased
same,VO2,[2]; [17],increase in VO2
same,EE,[2]; [18],increased
same,VO2,[2]; [18],increased
same,EE,[2]; [19],no significant difference
same,VCO2,[2]; [19],no significant difference
same,VO2,[2]; [19],no significant difference
same,thermogenesis,[2]; concluded from energy expenditure effects,increased
same,energy expenditure,"[2]; summary, second (T14/T15) and third (T27) METABOpack session, vs Vehicle",increase in energy expenditure
same,mean water intake,"[3]; T1, DP, 3 mg/kg, vs 0.3 and 1 mg/kg",decreased
same,mean water intake,"[3]; T1, DP, 0.3 and 1 mg/kg, vs Liraglutide",increased
same,mean water intake,[3]; [4],increase in mean water intake
same,mean water intake,"[3]; T1, three doses, vs vehicle",no significant difference
same,cumulative water intake,"[3]; T2, 0.3 mg/kg, vs Liraglutide, 5-24 h",increased
same,cumulative water intake,"[3]; T2, 0.3 mg/kg, vs vehicle, at 5, 6, 7, 9, 10 h and 12-24 h",increased
same,cumulative water intake,"[3]; T2, 1 mg/kg, vs Liraglutide, 4-24 h",increased
same,cumulative water intake,"[3]; T2, 1 mg/kg, vs vehicle, 4-24 h",increased
same,cumulative water intake,"[3]; T2, 3 mg/kg, vs Liraglutide, 2-24 h",increased
same,cumulative water intake,"[3]; T2, 3 mg/kg, vs vehicle, 2-24 h",increased
same,mean water intake,"[3]; T2, NP, 0.3 and 1 mg/kg, vs vehicle",increased
same,mean water intake,"[3]; T2, WD, whatever the dose, vs vehicle",increased
same,cumulative water intake,[3]; [7],no significant difference
same,mean water intake,"[3]; T2, whatever the phase, whatever the dose, vs Liraglutide",increase in mean water intake
same,cumulative water intake,"[3]; T14, 1 mg/kg, vs 0.3 mg/kg, at 2 h and 7-24 h",increased
same,cumulative water intake,"[3]; T14, 3 mg/kg, vs 0.3 mg/kg, 3-24 h",increased
same,cumulative water intake,"[3]; T14, 1 and 3 mg/kg, vs Liraglutide, 2-24 h",increased
same,cumulative water intake,"[3]; T14, 1 and 3 mg/kg, vs vehicle, 2-24 h",increased
same,mean water intake,"[3]; T14, NP, 1 and 3 mg/kg, vs 0.3 mg/kg",increased
same,mean water intake,"[3]; T14, WD, 3 mg/kg, vs 0.3 mg/kg",increased
same,mean water intake,"[3]; T14, whatever the phase, 1 and 3 mg/kg, vs Liraglutide",increase in mean water intake
same,mean water intake,"[3]; T14, whatever the phase, 1 and 3 mg/kg, vs vehicle",increased
same,cumulative water intake,"[3]; T15, 1 mg/kg, vs 0.3 mg/kg, 2-24 h",increased
same,cumulative water intake,"[3]; T15, 3 mg/kg, vs 0.3 mg/kg, 1-15 h",increased
same,cumulative water intake,"[3]; T15, 1 and 3 mg/kg, vs Liraglutide, over 24 h",increased
same,cumulative water intake,"[3]; T15, 1 and 3 mg/kg, vs vehicle, over 24 h",increased
same,cumulative water intake,"[3]; T26, 1 mg/kg, vs Liraglutide, at 3 h, 4 h and 6-21 h",increased
same,cumulative water intake,"[3]; T26, 1 mg/kg, vs vehicle, only at 3 h and 4 h",increased
same,cumulative water intake,"[3]; T26, 3 mg/kg, vs 0.3 mg/kg, 5-16 h",increased
same,cumulative water intake,"[3]; T26, 3 mg/kg, vs Liraglutide, 3-24 h",increased
same,cumulative water intake,"[3]; T26, 3 mg/kg, vs vehicle, 3-24 h",increased
same,mean water intake,"[3]; T26, NP and WD, 3 mg/kg, vs vehicle",increased
same,mean water intake,"[3]; T26, NP, 3 mg/kg, vs 0.3 mg/kg",increased
same,mean water intake,"[3]; T26, NP, 1 and 3 mg/kg, vs Liraglutide",increase in mean water intake
same,mean water intake,"[3]; T26, WD, 3 mg/kg, vs Liraglutide",increase in mean water intake
same,cumulative water intake,"[3]; T27, 1 mg/kg, vs vehicle, 2-5 h",increased
same,cumulative water intake,"[3]; T27, 3 mg/kg, vs 0.3 mg/kg, at 1 h and 3-8 h",increased
same,cumulative water intake,"[3]; T27, 3 mg/kg, vs 1 mg/kg, at 3 h, 4 h, 5 h and 7 h",increased
same,cumulative water intake,"[3]; T27, 3 mg/kg, vs Liraglutide, over 24 h",increased
same,cumulative water intake,"[3]; T27, 3 mg/kg, vs vehicle, over 24 h",increased
same,mean water intake,"[3]; T27, NP and WD, 3 mg/kg, vs vehicle and Liraglutide groups",increased
same,mean water intake,"[3]; section On T15 (text prints T14), NP and WD, 1 and 3 mg/kg, vs vehicle",increased
same,mean water intake,"[3]; section On T15, NP and WD, 1 and 3 mg/kg, vs Liraglutide",increase in mean water intake
same,mean water intake,"[3]; section On T15, NP, 1 and 3 mg/kg, vs 0.3 mg/kg",increased
same,mean water intake,"[3]; section On T15, WD, 1 mg/kg, vs 0.3 mg/kg",increased
